Reference: patent US20200299395A1 (MOGAM INSTITUTE FOR BIOMEDICAL RESEARCH, published 2020)

T1: BCMA expressed on multiple myeloma cell lines H929 and MM1S (UniProt Q02223 1-184, limits assumed)
T1 construct: whole, on cells; Endogenous BCMA on tumour cell lines; also called BMCA; cell surface BCMA
T1 sequence (looked up): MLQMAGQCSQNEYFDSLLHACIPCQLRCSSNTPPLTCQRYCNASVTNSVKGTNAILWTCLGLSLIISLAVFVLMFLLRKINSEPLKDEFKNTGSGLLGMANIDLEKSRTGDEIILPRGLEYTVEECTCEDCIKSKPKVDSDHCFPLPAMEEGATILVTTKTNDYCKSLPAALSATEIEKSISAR

T2: recombinant human BCMA (Cat. No. 193-BC, R&D Systems) (human, UniProt Q02223 1-54)
T2 sequence (looked up): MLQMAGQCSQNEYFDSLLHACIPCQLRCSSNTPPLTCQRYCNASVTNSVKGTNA

B1: Clone MN1 (VH domain) (VHH)
VHH: EVQLVESGGGLVQPGGSLRLSCAASGFTFTAYDMGWVRQAPGKGPEWVSLISSDSGDTWYDDSVKGRFTISRDNSKNTLYLQMNSLRAEDTAVYYCARLGAYSTTYDYWGQGTLVTVSS
notes: Single-domain antibody: a VH domain from a synthetic phage library, not camelid; Expressed in E. coli
B2: MN1 VH-Fc protein (Fc fusion)
chain: EVQLVESGGGLVQPGGSLRLSCAASGFTFTAYDMGWVRQAPGKGPEWVSLISSDSGDTWYDDSVKGRFTISRDNSKNTLYLQMNSLRAEDTAVYYCARLGAYSTTYDYWGQGTLVTVSS
notes: VH domain fused to a human IgG1 Fc domain; not shown: human IgG1 Fc domain
B3: Clone MN5 (VH domain) (VHH)
VHH: EVQLVESGGGLVQPGGSLRLSCAASGFTFSSYAMGWVRQAPGKGPEVVSLISGSGGSTWYDDSVKGRFTISRDNSKNTLYLQMNSLRAEDTAVYYCASREDNMTTWGQGTLVTVSS
notes: as for B1
B4: Clone MN7 (VH domain) (VHH)
VHH: EVQLVESGGGLVQPGGSLRLSCAASGFTFSSYAMGWVRQAPGKGPEVVSLISGSGGSTWYDDSVKGRFTISRDNSKNTLYLQMNSLRAEDTAVYYCASPEDMYQTWGQGTLVTVSS
notes: as for B1
B5: MN5 VH-Fc protein (Fc fusion)
chain: EVQLVESGGGLVQPGGSLRLSCAASGFTFSSYAMGWVRQAPGKGPEVVSLISGSGGSTWYDDSVKGRFTISRDNSKNTLYLQMNSLRAEDTAVYYCASREDNMTTWGQGTLVTVSS
notes: as for B2
B6: MN7 VH-Fc protein (Fc fusion)
chain: EVQLVESGGGLVQPGGSLRLSCAASGFTFSSYAMGWVRQAPGKGPEVVSLISGSGGSTWYDDSVKGRFTISRDNSKNTLYLQMNSLRAEDTAVYYCASPEDMYQTWGQGTLVTVSS
notes: as for B2
B7: Clone MN8 (VH domain) (VHH)
VHH: EVQLVESGGGLVQPGGSLRLSCAASGFTFSSYAMGWVRQAPGKGPEVVSLISGSGGSTWYDDSVKGRFTISRDNSKNTLYLQMNSLRAEDTAVYYCASPEDAPSYSRWGQGTLVTVSS
notes: as for B1
B8: MN8 VH-Fc protein (Fc fusion)
chain: EVQLVESGGGLVQPGGSLRLSCAASGFTFSSYAMGWVRQAPGKGPEVVSLISGSGGSTWYDDSVKGRFTISRDNSKNTLYLQMNSLRAEDTAVYYCASPEDAPSYSRWGQGTLVTVSS
notes: as for B2

How the values were obtained:
[1] = biological target: BCMA expressed on multiple myeloma cell lines H929 and MM1S (UniProt Q02223); experiment: flow cytometry, H929 cells, negative control without VH-Fc protein [B), H929 table]
[2] = biological target: BCMA expressed on multiple myeloma cell lines H929 and MM1S (UniProt Q02223); experiment: flow cytometry, MM1S cells, negative control without VH-Fc protein [B), MM1S table]
[3] = biological target: BCMA expressed on multiple myeloma cell lines H929 and MM1S (UniProt Q02223); experiment: flow cytometry, MM1S cells, negative control without VH domain [B), MM1S table]
[4] = biological target: BCMA expressed on multiple myeloma cell lines H929 and MM1S (UniProt Q02223); experiment: flow cytometry, H929 cells, negative control without VH domain [B), H929 table]
[5] = biological target: T1, BCMA expressed on multiple myeloma cell …; experiment: flow cytometry, H929 cells, purified VH domain (text: 1 uM); control iso_anti-His-PE Median 10.8 [B), H929 table]
Procedure: (§1) Multiple myeloma cells in culture were placed in a 50 ml tube and centrifuged at 1,000 rpm for 5 minutes at room temperature. Then, the culture solution was discarded and washing with PBS was performed once. The resultant was suspended in FACS buffer and then transferred to a round bottom tube. Centrifugation was performed at 2,000 rpm for 3 minutes at room temperature. The supernatant was discarded and loosening was performed with FACS buffer so as to obtain 1×10⁶ cells/100 μl. Then, 1 uM of the purified candidate antibody was added thereto at 4° C.
(§2) As a control, FACS buffer containing no candidate antibody was added. After 30 minutes, washing with FACS buffer was performed twice. […] The cells were collected by centrifugation at 2,000 rpm for 3 minutes, and then 200 μl of fixation buffer was added thereto. The cells were resuspended and measured by FACS Calibur™. The results are illustrated in FIGS. 4 and 5.

[6] = biological target: T1, BCMA expressed on multiple myeloma cell …; experiment: flow cytometry, MM1S cells, purified VH domain (text: 1 uM); control iso_anti-His-PE Median 3.74 [B), MM1S table]
Procedure: as §1, §2

[7] = biological target: T2, recombinant human BCMA (Cat. No. …); experiment: BLI (Octet), BCMA fixed on Anti-Fc Biosensor, antibody 0.078 to 5 nM
Procedure: Among the selected 20 clones, Clones MN1, MN5, MN7, and MN8 which were expected to have excellent binding capacity to BCMA-expressing tumor cell lines were purified. Quantitative binding capacity (affinity) of Clones MN1, MN5, MN7, and MN8 to recombinant human BCMA was measured using the OCTET system (Pall Corporation). BCMA (Cat. No. 193-BC, R&D Systems) purified from HEK293 cells was fixed to Biosensor (Pall Corporation). Then, the MN1, MN5, MN7, or MN8 antibody diluted sequentially in Kinetic bfr (Pall Corporation) was allowed to associate in a concentration range of 0.078 nM to 5 nM for 120 seconds, and was allowed to dissociate by performing flowing at a flow rate of 30 μl/min for 1,800 seconds. Dissociation of the BCMA-bound antibody was induced by flowing 10 mM glycine-HCl pH 1.5 at a flow rate of 30 μl/min for 30 seconds (Table 3). The binding affinity was obtained as the kinetic parameters (Kon and Koff) and the equilibrium dissociation constant (KD) using the Octet system data analysis software (Table 4).

[8] = biological target: T1, BCMA expressed on multiple myeloma cell …; experiment: flow cytometry, H929 cells, purified VH domain (text: 1 uM); control iso_anti-His-PE Mean 13.5 [B), H929 table]
Procedure: as §1, §2

[9] = biological target: T1, BCMA expressed on multiple myeloma cell …; experiment: flow cytometry, MM1S cells, purified VH domain (text: 1 uM); control iso_anti-His-PE Mean 4.19 [B), MM1S table]
Procedure: as §1, §2

[10] = biological target: T1, BCMA expressed on multiple myeloma cell …; experiment: flow cytometry, H929 cells, purified VH-Fc protein, 100nM per the sample name; control anti-hFc-PE Median 4.82 [B), H929 table]
[11] = biological target: T1, BCMA expressed on multiple myeloma cell …; experiment: flow cytometry, MM1S cells, purified VH-Fc protein, 100nM per the sample name; control anti-hFc-PE Median 2.50 [B), MM1S table]
[12] = biological target: T1, BCMA expressed on multiple myeloma cell …; experiment: flow cytometry, H929 cells, purified VH-Fc protein, 100nM per the sample name; control anti-hFc-PE Mean 5.41 [B), H929 table]
[13] = biological target: T1, BCMA expressed on multiple myeloma cell …; experiment: flow cytometry, MM1S cells, purified VH-Fc protein, 100nM per the sample name; control anti-hFc-PE Mean 2.81 [B), MM1S table]

Molecule	Median FL2-H [5]	Median FL2-H [6]	Kd [7]	Mean FL2-H [8]	Mean FL2-H [9]	Median FL2-H [10]	Median FL2-H [11]	Mean FL2-H [12]	Mean FL2-H [13]	also measured
anti-hFc-PE (antibody)										Mean FL2-H [1]: 5.41; Median FL2-H [1]: 4.82; Mean FL2-H [2]: 2.81; Median FL2-H [2]: 2.5
iso_anti-His-PE (antibody)										Mean FL2-H [3]: 4.19; Median FL2-H [3]: 3.74; Mean FL2-H [4]: 13.5; Median FL2-H [4]: 10.8
B1	50.4	14.3	0.7 nM	62.9	24					
B2						101	42.1	134	49.9	
B3	22.9	9.81	2.22 nM	25.6	13.9					
B4	11.8	4.49	2.23 nM	14.8	5.38					
B5						7.78	2.64	10.6	3.02	
B6						7.92	2.55	10.1	2.89	
B7	12.9	4.43	1.17 nM	15.1	4.93					
B8						10.3	2.77	14	3.13	
